In patent publication US20200255504A1 (VIB VZW, published 2020):
Positions count from the first letter of the chain named. Values joined by “and” are separate entries in the source; they are usually repeats but may differ in a detail not shown here. Equal values may be shown once.

Key:
rat serum albumin [1] = biological target: T1, rat serum albumin (rat, UniProt P02770 25-608); assay: BLI Octet RED96, rat albumin, reference SA1_S30K
T1 construct: also called rat albumin

human serum albumin [2] = biological target: T2, human serum albumin (human, UniProt P02768 25-609); assay: BLI off-rate screen, periplasmic extract 1/4 in PBS, HSA on AR2G sensors
T2 construct: also called HSA; human albumin
Procedure: (§1) Off-rate was analyzed by BioLayer Interferometry on an Octet RED96 (Fortebio) instrument using human serum albumin (HSA) coated Octet AR2G sensors (HSA was coupled at 20 μg/mL at pH 5.0 as detailed in Fortebio Technical Note 26).

human serum albumin [3] = biological target: T2, human serum albumin; assay: BLI Octet RED96, HSA on AR2G sensors, VHH 100-1.5 nM (column head says nM; values look like M)
dog serum albumin = biological target: T3, dog serum albumin (dog, UniProt P49822 25-608); assay: BLI Octet RED96, albumin on AR2G sensors, VHH 800-12.5 nM, 1:1 model
T3 construct: also called dog SA; dog albumin
Procedure: (§2) 10 mg of lyophilized cat, dog, horse or pig serum (HSA) albumin (Sigma) was resuspended in 1 mL of PBS (10 μg/μL). This was used at 20 μg/mL in the “Ligand scouting immobilization conditions” protocol for AR2G Biosensors as detailed in Fortebio Technical Note 26, in conjunction with a Fortebio Octet Red96 machine. Only the pH 5.0 and pH 4.0 condition were tested.
(§3) After data acquisition, the profiles were analyzed using the Octet Data analysis software v9.0.

horse serum albumin = biological target: T4, horse serum albumin (horse, UniProt P35747 25-607); assay: as above
T4 construct: also called horse SA; horse albumin
Procedure: as §2, §3

rabbit serum albumin = biological target: T5, rabbit serum albumin (rabbit, UniProt P49065 25-608); assay: BLI Octet RED96, albumin on AR2G sensors, VHH 1600-25 nM
T5 construct: also called rabbit albumin

mouse serum albumin [4] = biological target: T6, mouse serum albumin (mouse, UniProt P07724 25-608); assay: BLI Octet RED96, mouse albumin, reference SA1_S30K
T6 construct: also called mouse albumin

bovine serum albumin = biological target: T7, bovine serum albumin (bovine, UniProt P02769 25-607); assay: BLI Octet RED96, albumin on AR2G sensors
T7 construct: also called bovine albumin

human serum albumin [5] = biological target: T2, human serum albumin; assay: BLI Octet RED96, HSA on AR2G sensors, VHH 100-1.5 nM
human serum albumin [6] = biological target: T2, human serum albumin; assay: BLI off-rate screen, periplasmic extract 1/4 in 75 mM NaAc pH 5.5, HSA on AR2G sensors
Procedure: as §1

human serum albumin [7] = biological target: T2, human serum albumin; assay: BLI Octet RED96, albumin on AR2G sensors, VHH 100-1.5 nM
mouse serum albumin [8] = biological target: T6, mouse serum albumin; assay: as above
[9] = biological target: T8, cynomolgus monkey serum albumin (cynomolgus monkey); assay: as above
T8 construct: also called cyno albumin

rat serum albumin [10] = biological target: T1, rat serum albumin; assay: as above
pig serum albumin = biological target: T9, pig serum albumin (pig, UniProt P08835 25-607); assay: BLI Octet RED96, albumin on AR2G sensors
T9 construct: also called pig SA
Procedure: as §2, §3

cat serum albumin = biological target: T10, cat serum albumin (cat, UniProt P49064 25-608); assay: BLI Octet RED96, albumin on AR2G sensors
T10 construct: also called cat SA
Procedure: as §2, §3

human serum albumin [11] = biological target: T2, human serum albumin; assay: BLI Octet RED96, albumin on AR2G sensors (as in Example 4)
[12] = biological target: T8, cynomolgus monkey serum albumin; assay: as above
human serum albumin [13] = biological target: T2, human serum albumin; assay: BLI Octet RED96, HSA on AR2G sensors
human serum albumin [14] = biological target: T2, human serum albumin; assay: affinity determination, method not stated

B1: SA1 VHH (VHH)
VHH: QVQLQESGGGLVQAGGSLRLSCAASGRNISEYVMGWFRQAPGKEREFVAAISWSAGNIYYADSVKGRFTISRDNAKNTVHLQMNTLRPEDTAVYYCAAGRYSAWYVAAYEYDYWGQGTQVTVSS
notes: From WO2014/037419; made in E. coli WK6 periplasm; also called non-mutated SA1; original SA1 VHH
Q: Which results are given for B1?
A: fold lower affinity than SA1_S30K (rat serum albumin [1]): 20 fold; koff (human serum albumin [2]): 0.00222 s⁻¹ and 0.00199 s⁻¹; Kd (human serum albumin [3]): 1.15 nM; Kd (dog serum albumin): 126 nM; koff (dog serum albumin): 0.0158 s⁻¹; kon (dog serum albumin): 123000 M⁻¹ s⁻¹; Kd (horse serum albumin): 121 nM; koff (horse serum albumin): 0.00483 s⁻¹; kon (horse serum albumin): 52100 M⁻¹ s⁻¹; Kd (rabbit serum albumin): 600 nM; fold lower affinity than SA1_S30K (mouse serum albumin [4]): 2 fold; binding result (bovine serum albumin): no binding; koff (human serum albumin [5]): 0.00022 s⁻¹; koff (human serum albumin [6]): 0.000972 s⁻¹ and 0.00119 s⁻¹; Kd (human serum albumin [7]): 0.9 nM; Kd (mouse serum albumin [8]): 0.66 nM; Kd [9]: 0.37 nM; Kd (rat serum albumin [10]): 0.45 nM; binding result (pig serum albumin): no binding (tested: 800 nM (highest concentration)); binding result (cat serum albumin): no binding (tested: 800 nM (highest concentration))

B2: SA1_S30K VHH (VHH)
VHH: B1 VHH with S30K
notes: Made in E. coli WK6 periplasm; also called SA1_S3OK; SA1_S30K mutant variant
Q: B2 was tested. Which Response (human serum albumin [2]) did it give?
A: 0.25 nm

Q: And the koff (human serum albumin [2])?
A: 0.00141 s⁻¹

Q: And the Kd (human serum albumin [11])?
A: 1.28 nM

Q: What about the Kd [12] of the same binder?
A: 0.57 nM

Q: What about the Kd (human serum albumin [3]) of the same binder?
A: 0.825 nM

Q: And the Kd (dog serum albumin)?
A: 160 nM

Q: And the koff (dog serum albumin)?
A: 0.0181 s⁻¹

Q: And the kon (dog serum albumin)?
A: 166000 M⁻¹ s⁻¹

Q: What about the Kd (horse serum albumin) of the same binder?
A: 201 nM

Q: And the koff (horse serum albumin)?
A: 0.0103 s⁻¹

Q: What about the kon (horse serum albumin) of the same binder?
A: 59100 M⁻¹ s⁻¹

Q: Does B2 bind (bovine serum albumin)?
A: no binding

Q: What about the koff (human serum albumin [5]) of the same binder?
A: 0.000203 s⁻¹

Q: What about the Response (human serum albumin [6]) of the same binder?
A: 0.438 nm

Q: What about the koff (human serum albumin [6]) of the same binder?
A: 0.00181 s⁻¹

Q: And the Kd (human serum albumin [7])?
A: 0.91 nM

Q: And the Kd (mouse serum albumin [8])?
A: 0.29 nM

Q: What about the Kd [9] of the same binder?
A: 0.38 nM

Q: What about the Kd (rat serum albumin [10]) of the same binder?
A: 0.02 nM

Q: Does B2 bind (pig serum albumin)?
A: no binding (tested: 800 nM (highest concentration))

Q: Does B2 bind (cat serum albumin)?
A: no binding (tested: 800 nM (highest concentration))

B3: SA1_S30K humanized variant 1 VHH (VHH)
VHH: B1 VHH with Q1E, A14P, S30K, A75S, Q119L
notes: also called h1
Q: What does the source list for B3?
A: Kd (human serum albumin [11]): 1.33 nM; Kd [12]: 0.36 nM

B4: SA1_S30K humanized variant 2 VHH (VHH)
VHH: B1 VHH with Q1E, A14P, S30K, A75S, H80Y, Q119L
notes: also called h2
Q: B4 was tested. Which Kd (human serum albumin [11]) did it give?
A: 1.53 nM

Q: And the Kd [12]?
A: 0.5 nM

B5: SA1_S30K humanized variant 3 VHH (VHH)
VHH: B1 VHH with Q1E, A14P, S30K, A75S, T85S, Q119L
notes: also called h3
Q: Which Kd (human serum albumin [11]) does the source give for B5 here?
A: 1.64 nM

Q: And the Kd [12]?
A: 0.29 nM

B6: SA1_S30K humanized variant 4 VHH (VHH)
VHH: B1 VHH with Q1E, A14P, S30K, A75S, H80Y, T85S, Q119L
notes: also called h4
Q: What does the source list for B6?
A: Kd (human serum albumin [11]): 2.11 nM; Kd [12]: 0.32 nM

B7: SA1_S30K-biotinylated (VHH)
VHH: B1 VHH with S30K
modifications: labeled with NHS-PEG4-Biotin at a 5/1 molar ratio of biotin/VHH; the filing says the higher signal is likely related to the additional lysine at position 30; labelled residues not determined
notes: also called biotinylated SA1_S30K VHH
Q: Which results are given for B7?
A: Kd (human serum albumin [3]): 1.49 nM; fold change in KD or kon or koff against the unbiotinylated VHH (human serum albumin [13]): < 2 fold; koff (human serum albumin [5]): 0.000187 s⁻¹

B8: SA1-biotinylated (VHH)
VHH: B1 VHH
modifications: labeled with NHS-PEG4-Biotin at a 5/1 molar ratio of biotin/VHH; labelled residues not determined
notes: also called biotinylated SA1
Q: With B8 as the binder, how does the Kd (human serum albumin [3]) read?
A: 1.97 nM

Q: And the koff (human serum albumin [5])?
A: 0.000166 s⁻¹

B9: VHH-GFP-SA1_S30K (bispecific antibody)
chain: QVQLQESGGALVQPGGSLRLSCAASGFPVNRYSMRWYRQAPGKEREWVAGMSSAGDRSSYEDSVKGRFTISRDDARNTVYLQMNSLKPEDTAVYYCNVNVGFEYWGQGTQVTVSSGGSGGSGGSGGSGGSGGSGGSGGSGGSGGSGGSGGSGGSGGSGGSGGSGGSGGSGGSGGSQVQLQESGGGLVQAGGSLRLSCAASGRNIKEYVMGWFRQAPGKEREFVAAISWSAGNIYYADSVKGRFTISRDNAKNTVHLQMNTLRPEDTAVYYCAAGRYSAWYVAAYEYDYWGQGTQVTVSS
notes: also called VHH-GFP-SA26
Q: For B9, which Kd (human serum albumin [14]) is on record?
A: 5 nM
